{
  "source": "patent US12440549B2",
  "about": "“Polyvalent immunogenicity composition for human papillomavirus” (SinoCellTech Ltd., priority 2019, dated 2025)",
  "assay": "Expression and solubility of L1 protein in insect cells (cell lysate vs supernatant, SDS-PAGE)",
  "type": "physicochemical",
  "settings": "supernatant after centrifugation of lysate",
  "experimental": "FIG. 4: Expression of C-terminal truncated HPV 16L1 (1-474). M: Marker; L: cell lysates; E-S: supernatant collected after centrifugation of the lysates.\nHigh Five cells were infected with baculovirus containing the HPV6 L1: 33C recombinant gene obtained in Example 2 at a ratio of 1:200 (V/V), and the cell precipitate was collected by centrifugation at 1000 g±100 g at room temperature. The cells were broken up by sonication at low temperature for 3 min, centrifuged at >10,000 g for 10 min and the supernatant was collected for SDS-PAGE. Lane 1: Marker (The marker is a mixture of 7 purified proteins with molecular weights ranging from 14.4 kDa to 116 kDa, produced by Thermo Scientific); Lane 2: cell lysate; Lane 3: supernatant of the lysate collected by centrifugation.\nThe inventors attempted to truncate the C-terminus of HPV16 L1 by 31 amino acids and named it HPV16 L1 (1-474) (SEQ ID NO: 27).",
  "data": [
    {"substance": "HPV16 L1 (1-474): Comparative example: HPV16 L1 protein with the C-terminus truncated by 31 amino acids", "values": [
      {"measurement": "solubility of the expressed L1 protein", "result": "very poor solubility"},
      {"measurement": "solubility of the expressed L1 protein", "setting": "listed as HPV 16 L1 (1-474)", "result": "poor solubility"}
    ]}
  ]
}
